Measurements reported in paper PMC5700991, “Cryo-EM structure of Saccharomyces cerevisiae target of rapamycin complex 2” (Nature Communications, 2017).

B3: Bit61-TAP (natural protein, S. cerevisiae, UniProt P47041 1-543, looked up)
chain: MTAEDILLRERTSTTTQRPVNSEQYLNVQLATAPVKNFQTTSEISRQTLVDTSNDDVYSIKNLKGSRNPISPSVSNVGFQSIFHTVDHPRSKVSVASNHSLRSNDNASAATSKSGSSQIGESHSVDTVECSNNLSKKLSSDAISITQKSLHSTPSGRYMKGKASGFFNRRNRAHTTISSDPASFLTDSSTLHNSSHSFRNVIKNFFQNKSHRHIGQDAIEPAIPNSLSKFLHSSYGRHKSPSQFIHTNAGQLVDSGTSVYSLNVNPSGVNPNTIVEDPLSGTDPASPNPVSMLHDLLRNLPSLEANYKHFNSQELTTLTNNIWNIFCSNVAELFRTQRIWKLRAKIENFNEVLEFYCILKTDPRVTHSGMNRIISDLKEFLVSSLYNLENQIVFNYSNEDTINNALKRLGVIWRIFYQEVYYDLAAVLLPLDQSIREDGNSTVLKSGNESRTHINGNYSIGFLLLMCFRDSIVLPCYENFVNSNDGISKSFQLYIFNQEEESNVTETDKLTLLQCFGILSTIQSNDRNQRIIEELLAGIRMSI
notes: Bit61 of S. cerevisiae (ortholog of Protor), subunit of TORC2; The chain was captured by the protein A part of the TAP tag and set free with TEV protease; also called TAP-tagged Bit61; source: S. cerevisiae Bit61-TAP expressing strain lacking Bit2, cell extract; captured on IgG-coated dynabeads, released with TEV protease

Tests used:
Assay in all cases: cryo-EM structure; TORC2 purified from S. cerevisiae extract by protein-A affinity purification of Bit61-TAP (IgG-coated dynabeads; 50 mM HEPES pH 7.5, 0.2 mM CHAPS, 300 mM KCl, 0.5 mM DTT wash; TEV release); single-particle cryo-EM, C2 symmetry, 7.9 Å overall; homology models fitted
Tor2 (S. cerevisiae) = Tor2 (S. cerevisiae) (UniProt P32600)
Tor2 = target: T1, Tor2 (S. cerevisiae, UniProt P32600 1-2474); conditions: both partners purified
T1 construct: Tor2, Ser/Thr protein kinase of S. cerevisiae TORC2; HEAT repeats (spiral, bridge), FAT, FRB, kinase and FATC domains; Two copies stand in the TORC2 complex; The model in the map is a homology model built on the K. marxianus Tor-Lst8 structure; also called Sc Tor2; S. cerevisiae Tor2; source: endogenous, S. cerevisiae cell extract (Bit61-TAP strain lacking Bit2); purified as part of TORC2 on …

Bit61-TAP = target: B3; conditions: both partners purified
Avo1 = target: T2, Avo1 (S. cerevisiae, UniProt Q08236 1-1176); conditions: both partners purified
T2 construct: Avo1 of S. cerevisiae (ortholog of hSin1); CRIM domain (residues 647-792 in the model; aa 638-786 in the methods), PH domain (aa 1076-1176); Poorly resolved in the map; only a homology model of the CRIM domain was fitted at a low contour level; source: endogenous, S. cerevisiae cell extract (Bit61-TAP strain lacking Bit2); purified as part of TORC2 on IgG-coated dynabeads, released with TEV …
T2 sequence (looked up): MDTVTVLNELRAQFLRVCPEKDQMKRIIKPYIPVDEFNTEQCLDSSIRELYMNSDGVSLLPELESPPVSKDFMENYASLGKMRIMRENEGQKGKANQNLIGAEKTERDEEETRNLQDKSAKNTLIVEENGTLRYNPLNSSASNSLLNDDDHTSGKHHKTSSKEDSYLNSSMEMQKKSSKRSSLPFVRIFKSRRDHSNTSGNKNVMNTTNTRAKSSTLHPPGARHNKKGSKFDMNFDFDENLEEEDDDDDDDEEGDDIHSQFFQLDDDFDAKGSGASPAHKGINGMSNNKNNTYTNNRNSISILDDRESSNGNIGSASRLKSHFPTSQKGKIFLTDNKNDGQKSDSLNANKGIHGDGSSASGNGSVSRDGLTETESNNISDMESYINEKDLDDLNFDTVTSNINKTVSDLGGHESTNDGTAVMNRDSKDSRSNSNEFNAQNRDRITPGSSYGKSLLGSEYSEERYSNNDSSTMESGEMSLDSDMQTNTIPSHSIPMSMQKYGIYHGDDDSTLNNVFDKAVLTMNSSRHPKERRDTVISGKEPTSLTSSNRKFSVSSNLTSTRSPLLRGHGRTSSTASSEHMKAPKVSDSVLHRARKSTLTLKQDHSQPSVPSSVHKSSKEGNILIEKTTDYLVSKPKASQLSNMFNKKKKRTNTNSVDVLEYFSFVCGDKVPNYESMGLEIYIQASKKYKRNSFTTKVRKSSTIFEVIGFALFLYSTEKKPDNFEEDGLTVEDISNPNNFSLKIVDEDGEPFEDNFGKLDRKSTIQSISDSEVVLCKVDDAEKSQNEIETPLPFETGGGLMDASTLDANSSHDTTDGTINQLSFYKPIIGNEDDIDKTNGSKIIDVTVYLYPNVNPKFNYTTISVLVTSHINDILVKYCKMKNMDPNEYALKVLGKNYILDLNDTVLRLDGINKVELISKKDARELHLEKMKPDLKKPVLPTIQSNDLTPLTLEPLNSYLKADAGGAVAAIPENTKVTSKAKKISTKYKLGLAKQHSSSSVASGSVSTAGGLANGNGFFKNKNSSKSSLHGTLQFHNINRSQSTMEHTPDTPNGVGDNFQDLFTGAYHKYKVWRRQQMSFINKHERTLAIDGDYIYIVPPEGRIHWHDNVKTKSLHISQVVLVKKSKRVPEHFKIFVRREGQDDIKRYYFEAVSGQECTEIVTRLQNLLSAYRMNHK

Avo3 = target: T3, Avo3 (S. cerevisiae, UniProt P40061 1-1430); conditions: both partners purified
T3 construct: Avo3 of S. cerevisiae (ortholog of Rictor); armadillo-like helical domain in its middle part; Only 17 individual helices are modelled; they are not tied to residue numbers in the text; source: endogenous, S. cerevisiae cell extract (Bit61-TAP strain lacking Bit2); purified as part of TORC2 on IgG-coated dynabeads, released with TEV protease
T3 sequence (looked up): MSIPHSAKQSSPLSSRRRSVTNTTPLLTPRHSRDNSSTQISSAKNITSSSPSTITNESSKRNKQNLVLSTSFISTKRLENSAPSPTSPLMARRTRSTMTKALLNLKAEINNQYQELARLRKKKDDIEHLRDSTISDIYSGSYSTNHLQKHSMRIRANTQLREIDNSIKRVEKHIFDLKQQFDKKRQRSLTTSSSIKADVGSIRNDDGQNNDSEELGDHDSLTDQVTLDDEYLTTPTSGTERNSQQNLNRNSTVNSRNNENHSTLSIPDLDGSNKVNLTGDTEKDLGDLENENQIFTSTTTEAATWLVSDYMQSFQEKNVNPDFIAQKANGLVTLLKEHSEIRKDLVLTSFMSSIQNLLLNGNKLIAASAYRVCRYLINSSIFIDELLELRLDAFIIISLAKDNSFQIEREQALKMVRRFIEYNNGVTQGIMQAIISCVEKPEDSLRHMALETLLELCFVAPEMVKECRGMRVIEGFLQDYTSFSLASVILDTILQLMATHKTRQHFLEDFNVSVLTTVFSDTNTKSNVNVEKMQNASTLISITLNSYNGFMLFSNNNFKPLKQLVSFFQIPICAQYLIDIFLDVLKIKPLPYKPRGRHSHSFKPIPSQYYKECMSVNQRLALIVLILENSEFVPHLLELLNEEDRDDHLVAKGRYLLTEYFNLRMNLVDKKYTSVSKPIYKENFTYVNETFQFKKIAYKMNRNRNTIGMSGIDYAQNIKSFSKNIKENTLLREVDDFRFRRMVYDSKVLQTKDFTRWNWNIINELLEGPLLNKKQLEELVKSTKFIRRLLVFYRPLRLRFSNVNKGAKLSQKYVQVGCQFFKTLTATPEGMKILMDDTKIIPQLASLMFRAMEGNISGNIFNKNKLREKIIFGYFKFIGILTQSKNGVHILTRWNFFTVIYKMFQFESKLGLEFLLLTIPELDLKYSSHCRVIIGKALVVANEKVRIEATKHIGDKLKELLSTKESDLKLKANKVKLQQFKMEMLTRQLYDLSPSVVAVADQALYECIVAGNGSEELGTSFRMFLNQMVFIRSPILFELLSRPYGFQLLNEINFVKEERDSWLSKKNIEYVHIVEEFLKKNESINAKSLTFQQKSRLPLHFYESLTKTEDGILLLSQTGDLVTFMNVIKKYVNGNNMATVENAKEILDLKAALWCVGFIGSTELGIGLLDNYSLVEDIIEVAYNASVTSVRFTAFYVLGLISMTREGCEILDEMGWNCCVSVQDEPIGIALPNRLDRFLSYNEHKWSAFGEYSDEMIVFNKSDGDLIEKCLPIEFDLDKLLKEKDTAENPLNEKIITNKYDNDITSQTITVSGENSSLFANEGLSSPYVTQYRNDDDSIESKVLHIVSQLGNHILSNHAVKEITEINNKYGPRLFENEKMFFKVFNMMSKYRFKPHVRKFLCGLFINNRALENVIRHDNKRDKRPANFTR

T1 sequence (P32600 whole entry, the tested form may be a part): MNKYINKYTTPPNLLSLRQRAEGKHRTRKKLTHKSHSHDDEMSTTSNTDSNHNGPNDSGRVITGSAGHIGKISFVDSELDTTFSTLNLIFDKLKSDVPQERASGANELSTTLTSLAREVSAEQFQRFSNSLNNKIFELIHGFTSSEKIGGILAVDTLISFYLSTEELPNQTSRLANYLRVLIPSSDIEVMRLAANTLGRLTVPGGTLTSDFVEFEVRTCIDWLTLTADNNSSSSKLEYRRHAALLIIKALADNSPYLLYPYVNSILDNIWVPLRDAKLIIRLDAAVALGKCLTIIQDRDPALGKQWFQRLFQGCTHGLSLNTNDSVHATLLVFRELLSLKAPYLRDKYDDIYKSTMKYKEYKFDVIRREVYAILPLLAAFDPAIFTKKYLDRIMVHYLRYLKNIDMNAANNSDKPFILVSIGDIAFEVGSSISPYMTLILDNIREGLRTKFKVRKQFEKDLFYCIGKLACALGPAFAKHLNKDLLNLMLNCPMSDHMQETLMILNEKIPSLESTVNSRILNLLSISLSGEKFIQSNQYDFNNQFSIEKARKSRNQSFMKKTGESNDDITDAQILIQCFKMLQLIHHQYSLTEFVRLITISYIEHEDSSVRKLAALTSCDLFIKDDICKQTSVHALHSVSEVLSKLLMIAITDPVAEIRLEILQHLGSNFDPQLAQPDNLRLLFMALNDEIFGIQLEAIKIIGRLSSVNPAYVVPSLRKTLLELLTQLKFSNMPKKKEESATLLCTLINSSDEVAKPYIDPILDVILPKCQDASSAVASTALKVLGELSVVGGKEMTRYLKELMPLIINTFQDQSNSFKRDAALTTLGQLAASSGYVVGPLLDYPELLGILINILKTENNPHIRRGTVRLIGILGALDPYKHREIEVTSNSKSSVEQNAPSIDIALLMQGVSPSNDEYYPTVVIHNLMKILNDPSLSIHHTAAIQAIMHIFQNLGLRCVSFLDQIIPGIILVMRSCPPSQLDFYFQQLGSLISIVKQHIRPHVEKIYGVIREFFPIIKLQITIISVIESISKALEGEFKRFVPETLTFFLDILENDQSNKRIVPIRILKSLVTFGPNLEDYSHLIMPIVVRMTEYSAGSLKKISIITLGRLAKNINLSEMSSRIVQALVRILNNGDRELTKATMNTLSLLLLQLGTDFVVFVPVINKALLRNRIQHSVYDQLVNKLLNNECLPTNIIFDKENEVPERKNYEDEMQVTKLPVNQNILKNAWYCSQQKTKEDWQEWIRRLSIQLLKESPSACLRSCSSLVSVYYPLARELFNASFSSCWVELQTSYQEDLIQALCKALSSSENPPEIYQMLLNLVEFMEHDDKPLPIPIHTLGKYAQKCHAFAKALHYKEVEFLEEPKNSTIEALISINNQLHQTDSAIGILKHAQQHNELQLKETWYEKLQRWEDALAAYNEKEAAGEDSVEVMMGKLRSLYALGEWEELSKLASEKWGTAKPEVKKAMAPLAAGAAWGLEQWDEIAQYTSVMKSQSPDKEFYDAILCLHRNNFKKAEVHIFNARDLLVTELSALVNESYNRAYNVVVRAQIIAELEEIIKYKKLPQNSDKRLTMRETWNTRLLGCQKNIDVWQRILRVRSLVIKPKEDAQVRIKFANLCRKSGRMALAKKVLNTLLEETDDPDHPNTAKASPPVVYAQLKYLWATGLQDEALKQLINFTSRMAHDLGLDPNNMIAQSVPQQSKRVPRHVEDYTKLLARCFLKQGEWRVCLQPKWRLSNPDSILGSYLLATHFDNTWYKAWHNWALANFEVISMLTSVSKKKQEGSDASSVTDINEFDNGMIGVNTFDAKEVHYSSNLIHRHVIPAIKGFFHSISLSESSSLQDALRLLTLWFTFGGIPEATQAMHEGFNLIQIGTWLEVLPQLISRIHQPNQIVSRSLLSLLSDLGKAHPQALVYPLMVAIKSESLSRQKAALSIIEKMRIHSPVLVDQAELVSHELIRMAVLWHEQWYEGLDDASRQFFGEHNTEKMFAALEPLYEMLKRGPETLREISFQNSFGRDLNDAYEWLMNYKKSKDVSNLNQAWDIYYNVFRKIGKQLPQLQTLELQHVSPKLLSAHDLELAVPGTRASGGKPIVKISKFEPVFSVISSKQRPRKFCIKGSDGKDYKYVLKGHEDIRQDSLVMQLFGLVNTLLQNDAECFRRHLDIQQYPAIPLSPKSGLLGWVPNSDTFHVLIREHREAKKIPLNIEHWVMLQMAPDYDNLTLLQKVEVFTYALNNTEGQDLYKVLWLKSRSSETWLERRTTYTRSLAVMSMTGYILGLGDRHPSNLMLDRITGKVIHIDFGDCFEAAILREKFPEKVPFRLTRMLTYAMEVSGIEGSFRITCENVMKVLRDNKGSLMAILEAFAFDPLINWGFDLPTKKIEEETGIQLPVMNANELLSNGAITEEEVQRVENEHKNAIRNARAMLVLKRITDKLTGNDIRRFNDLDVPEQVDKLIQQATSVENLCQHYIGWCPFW

With Tor2, P32600 1-2474 the stoichiometry N (Tor2 (S. cerevisiae)) was 2.

B1: Avo2 (natural protein, S. cerevisiae, UniProt Q04749 1-426, looked up)
chain: MLKEPSVRLREAIIEGNLLIVKRLLRRNPDLLTNIDSENGWSSLHYASYHGRYLICVYLIQLGHDKHELIKTFKGNTCVHLALMKGHEQTLHLLLQQFPRFINHRGENGRAPIHIACMNDYYQCLSLLIGVGADLWVMDTNGDTPLHVCLEYGSISCMKMLLNEGEVSLDDNVRDKGNWKPIDVAQTFEVGNIYSKVLKEVKKKGPPLGAGKKPSSFRTPILNAKATFEDGPSPVLSMNSPYSLYSNNSPLPVLPRRISTHTTSGNGGNRRSSITNPVFNPRKPTLSTDSFSSSSNSSSRLRVNSINVKTPVGVSPKKELVSESVRHSATPTSPHNNIALINRYLLPNKSNDNVRGDSQTATINDDGGGGNGGDATIGMGLRKDPDDENENKYKIKVNNGEPRRRVSLLNIPISKLRNSNNTRAED
notes: Avo2 of S. cerevisiae; N-terminal five ankyrin repeats (residues 4-171; modelled aa 4-163); Only the ankyrin repeats are modelled in the map; source: endogenous, S. cerevisiae cell extract (Bit61-TAP strain lacking Bit2); purified as part of TORC2 on IgG-coated dynabeads, released with TEV protease
B1: binds (Tor2); binds (Bit61-TAP).

B2: Lst8 (natural protein, S. cerevisiae, UniProt P41318 1-303, looked up)
chain: MSVILVSAGYDHTIRFWEALTGVCSRTIQHSDSQVNRLEITNDKKLLATAGHQNVRLYDIRTTNPNPVASFEGHRGNVTSVSFQQDNRWMVTSSEDGTIKVWDVRSPSIPRNYKHNAPVNEVVIHPNQGELISCDRDGNIRIWDLGENQCTHQLTPEDDTSLQSLSMASDGSMLAAANTKGNCYVWEMPNHTDASHLKPVTKFRAHSTYITRILLSSDVKHLATCSADHTARVWSIDDDFKLETTLDGHQRWVWDCAFSADSAYLVTASSDHYVRLWDLSTREIVRQYGGHHKGAVCVALNDV
notes: Lst8 of S. cerevisiae, composed entirely of WD40 repeats (beta propeller); Two copies stand in the TORC2 complex; source: endogenous, S. cerevisiae cell extract (Bit61-TAP strain lacking Bit2); purified as part of TORC2 on IgG-coated dynabeads, released with TEV protease
B2: binds (Tor2); binds (Avo1); binds (Bit61-TAP).

B3: binds (Tor2); binds (Avo1); binds (Avo3).
